One block for each molecule: values may come before it.
Key:
[1] = molecular target: MKD1-RB, roadblock (RB) protein from Loki MKD1 (Candidatus Prometheoarchaeum syntrophicum strain MK-D1); assay: crystal structure; MKD1-RB crystals in 100 mM MES, pH 6.0, 250 mM zinc acetate dihydrate, 6% wt/vol PEG 3000, 20 °C; solved using the Thor-RB structure
Thor-Rab [2] = molecular target: T1, Thor-Rab (Candidatus Thorarchaeota archaeon SMTZ1-45, UniProt A0A135VL07); assay: X-ray crystallography, co-crystal without Mg2+ ([…] Å) and soak with Mg2+ ([…] Å); settings: co-crystal 10 mM GTPγS, one copy mixed GDP/GTPγS, second copy full GTPγS; soak of GDP crystal with GTPγS and MgCl2; pH 5.5; nucleotide-binding site
T1 construct: codon-optimized gene in pSY5, N-terminal His8 tag removed by HRV 3C; E. coli expression; naturally lacks the C-terminal cysteine extension; two molecules in the asymmetric unit
T1 sequence (A0A135VL07 1-182): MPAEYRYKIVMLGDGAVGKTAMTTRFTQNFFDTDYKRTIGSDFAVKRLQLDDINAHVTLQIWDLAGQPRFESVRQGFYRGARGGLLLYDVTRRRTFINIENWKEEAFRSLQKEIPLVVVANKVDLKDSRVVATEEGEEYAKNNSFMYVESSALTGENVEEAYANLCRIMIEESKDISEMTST

[3] = molecular target: Odin-RBLC7, truncated roadblock (RBLC7) protein from Odin LCB_4 (Odinarchaeota LCB_4); assay: crystal structure; Odin-RBLC7 crystals in 200 mM MgSO4, 20% PEG 4000, 10% glycerol, 20 °C; molecular replacement with dynein DLRB1 (PDB 3L7H)
[4] = molecular target: SMTZ1-45 Thor-TRAPPC3, TRAPPC3-like protein from Thor SMTZ1-45 (Candidatus Thorarchaeota archaeon SMTZ1-45); assay: crystal structure; Thor-TRAPPC3 crystals in 100 mM HEPES, pH 7.5, 250 mM magnesium formate-dihydrate, 18% wt/vol PEG3350, 20 °C; molecular replacement with the AB25 Thor-TRAPPC3 model (7YH2)
[5] = molecular target: Thor-RB, predicted roadblock (RB) protein from Thor SMTZ1-45 (Candidatus Thorarchaeota archaeon SMTZ1-45); assay: crystal structure; Thor-RB crystals in 100 mM sodium acetate trihydrate, pH 5.0, 200 mM LiCl, 16% wt/vol PEG 6000, 20 °C; molecular replacement with MglB (PDB 3T1S)
Thor-Rab [6] = molecular target: T1, Thor-Rab; assay: phosphate release assay (EnzChek), GTP hydrolysis; type: biochemical; settings: 1 mM GTP, 2 mM MgCl2, 20 mM HEPES pH 7.5, 150 mM NaCl, 25 °C, 2 h; no GAP or GEF; heat-denatured control
Rab11B = molecular target: T2, Rab11B (Homo sapiens, UniProt Q15907); assay: phosphate release assay (EnzChek), GTP hydrolysis; type: biochemical; settings: 1 mM GTP, 2 mM MgCl2, 20 mM HEPES pH 7.5, 150 mM NaCl, 25 °C, 2 h; no GAP or GEF; heat-denatured control
T2 construct: codon-optimized gene in pSY5, N-terminal His8 tag with HRV 3C site (tag removed); E. coli expression
T2 sequence (Q15907 1-218): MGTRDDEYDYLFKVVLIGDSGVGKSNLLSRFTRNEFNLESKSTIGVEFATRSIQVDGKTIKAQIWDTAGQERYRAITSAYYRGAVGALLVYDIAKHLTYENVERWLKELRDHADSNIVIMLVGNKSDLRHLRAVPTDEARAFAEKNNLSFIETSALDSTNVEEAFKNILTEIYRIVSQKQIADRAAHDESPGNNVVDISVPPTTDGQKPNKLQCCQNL

stoichiometry N [1]: 2
Molecule: MKD1-RB, roadblock (RB) protein from Loki MKD1 (natural protein)

stoichiometry N [3]: 2
Molecule: Odin-RBLC7, truncated roadblock (RBLC7) protein from Odin LCB_4 (natural protein)

stoichiometry N [4]: 2
Molecule: SMTZ1-45 Thor-TRAPPC3, TRAPPC3-like protein from Thor SMTZ1-45 (natural protein)

stoichiometry N [5]: 2
Molecule: Thor-RB, predicted roadblock (RB) protein from Thor SMTZ1-45 (natural protein)

The next lines start with the molecule.

Molecule: Nc1nc2c(ncn2[C@@H]2O[C@H](COP(=O)(O)OP(=O)(O)OP(O)(O)=S)[C@@H](O)[C@H]2O)c(=O)[nH]1 [GTP-γS]
X-ray crystallography, co-crystal without Mg2+ (1.75 Å) and soak with Mg2+ (1.95) (Thor-Rab [2]): full occupancy for GTP-γS in the second copy

Molecule: Nc1nc2c(ncn2[C@@H]2O[C@H](COP(=O)(O)OP(=O)(O)OP(=O)(O)O)[C@@H](O)[C@H]2O)c(=O)[nH]1 [GTP]
phosphate release assay (EnzChek), GTP hydrolysis (Thor-Rab [6]): SMTZ1-45 Thor-Rab generated similar levels of phosphate in comparison to human Rab11B | phosphate release assay (EnzChek), GTP hydrolysis (Rab11B): The GTPase activity of human Rab11B and SMTZ1-45 Thor-Rab were measured
